Measured values taken from patent publication US20190284266A1.
pIC50: −log10 of the molar value. Values belong to the substance of their own block, whether it stands above or below them.

Columns and labels:
[1] = target: hyperphosphorylated (pathological) tau from human Alzheimer's disease brain, phosphorylated at serine 396 (human) (UniProt P10636); assay: binding of pathological versus non-pathological tau, brain material (Table 5)
[2] = target: hyperphosphorylated human tau P301L (0N4R) of rTg4510 mice, 64 kDa and 70 kDa species (human) (UniProt P10636); assay: as above
[3] = target: hyperphosphorylated (pathological) tau from human Alzheimer's disease brain, phosphorylated at serine 396 (human) (UniProt P10636); assay: immunodepletion of AD brain extract with antibody-coated beads, pS396 western blot
[4] = target: tau phosphorylated at Serine 422 in Alzheimer's disease brain extract (human) (UniProt P10636); assay: immunodepletion of AD brain extract with antibody-coated beads, P-S422 western blot
[5] = target: total tau of Alzheimer's disease brain extract (human) (UniProt P10636); assay: immunodepletion of AD brain extract with antibody on Protein G magnetic beads; remaining total tau by Tau5 western blot, normalised to gapdh
[6] = target: total tau of Alzheimer's disease brain extract (human) (UniProt P10636); assay: immunodepletion of AD brain extract with antibody-coated beads, Tau5 western blot
[7] = target: tau phosphorylated at Serine 199/202 in Alzheimer's disease brain extract (human) (UniProt P10636); assay: immunodepletion of AD brain extract with 5 µg antibody on beads, P-S199/202 western blot
[8] = target: hyperphosphorylated (pathological) tau from human Alzheimer's disease brain, phosphorylated at serine 396 (human) (UniProt P10636); assay: MSD fluid phase inhibition: antibody pre-incubated with AD-P3, capture on coated mouse C10-2 (competitor); two-site fit, high affinity part; two-site fit, high affinity part (less than 25% of total binding)
[9] = target: hyperphosphorylated (pathological) tau from human Alzheimer's disease brain, phosphorylated at serine 396 (human) (UniProt P10636); assay: MSD fluid phase inhibition of Ptau antigen capture on C10-2 coated plate (competitor C10-2); upper end of the printed range 10-20 nM
[10] = target: hyperphosphorylated (pathological) tau from human Alzheimer's disease brain, phosphorylated at serine 396 (human) (UniProt P10636); assay: MSD fluid phase inhibition of AD-P3 capture, two-site fit
[11] = target: hyperphosphorylated (pathological) tau from human Alzheimer's disease brain, phosphorylated at serine 396 (human) (UniProt P10636); assay: immunodepletion of AD brain extract with antibody on Protein G magnetic beads; remaining P-S396 tau by western blot, normalised to gapdh
[12] = target: hyperphosphorylated (pathological) tau from human Alzheimer's disease brain, phosphorylated at serine 396 (human) (UniProt P10636); assay: MSD fluid phase inhibition: antibody pre-incubated with AD-P3, capture on coated mouse C10-2 (competitor); two-site fit, low affinity part (predominant); two-site fit, low affinity part (predominant)
[13] = target: tau phosphorylated at Serine 199/202 in Alzheimer's disease brain extract (human) (UniProt P10636); assay: immunodepletion of AD brain extract with antibody-coated beads, P-S199/202 western blot
[14] = target: hyperphosphorylated (pathological) tau from human Alzheimer's disease brain, phosphorylated at serine 396 (human) (UniProt P10636); assay: MSD fluid phase inhibition of Ptau antigen capture on C10-2 coated plate (competitor C10-2); lower end of the printed range 10-20 nM
[15] = target: hyperphosphorylated (pathological) tau from human Alzheimer's disease brain, phosphorylated at serine 396 (human) (UniProt P10636); assay: immunodepletion of AD brain extract, pS396 western blot, 75 ng antibody
[16] = target: hyperphosphorylated human tau P301L (0N4R) of rTg4510 mice, 64 kDa and 70 kDa species (human) (UniProt P10636); assay: cell-based or functional assay
[17] = target: hyperphosphorylated (pathological) tau from human Alzheimer's disease brain, phosphorylated at serine 396 (human) (UniProt P10636); assay: MSD fluid phase inhibition of Ptau antigen capture on C10-2 coated plate (competitor C10-2)
[18] = target: Antibody N32S; assay: MSD peptide inhibition: 1 ng/ml antibody pre-incubated with graded Ptau 386-408 (pS396), then wells coated with Ptau 386-408 (pS396/pS404) (competitor)
[19] = target: Antibody N32S, A101T; assay: as above

AD/ctrl (ratio of binding to AD brain tau over control brain tau) [1]: 5 fold
TG/wt (ratio of binding to transgenic over wild type mouse brain tau) [2]: 2 fold
amount of antibody for half of the max effect [3]: 0.63 µg
max effect, percent of pS396 tau removed [3]: 60%
percent of pS396 tau removed [3]: 55%
amount of antibody required to remove 50% of the pS422 tau [4]: 0.42 µg
percent of pS422 tau removed [4]: > 90%
EC50 (read off the curve) [5]: 0.3 µg
percent of total tau removed [6]: < 24%
max percent reduction of pS199/202 tau [7]: 52%
Substance: 2.10.3 antibody

TG/wt (ratio of binding to transgenic over wild type mouse brain tau) [2]: 51 fold
Substance: HJ8.5 (antibody)

pIC50 [17]: 6.00 to 6.30
Substance: PHF-13 (antibody)

pIC50 [18]: 7.30
pIC50 [19]: 7.47
Substance: Ptau 386-408 (pS396) peptide

Further lines, the substance ahead of its results:

Substance: Anti-Tau Therapeutic Antibody NI-105-4E4
TG/wt (ratio of binding to transgenic over wild type mouse brain tau) [2]: 1 fold

Substance: Antibody C10-2 (humanized C10-2)
pIC50 [8]: 7.85
pIC50 [9]: > 7.70
AD/ctrl (ratio of binding to AD brain tau over control brain tau) [1]: > 100 fold
TG/wt (ratio of binding to transgenic over wild type mouse brain tau) [2]: 118 fold
share of high affinity binding in the total binding [10]: < 25%
EC50 (read off the curve) [11]: 0.2 µg
pIC50 [12]: 6.20
amount of antibody for 50% of the effect [13]: 0.34 µg
percent of pS199/202 tau removed [13]: 69%
pIC50 [14]: < 8.00
amount of antibody for half of the max effect [3]: 0.3 µg
max effect, percent of pS396 tau removed [3]: 88%
percent decrease in the pS396 signal at 75 ng antibody [15]: < 6%
amount of antibody required to remove 50% of the pS422 tau [4]: 0.27 µg
percent of pS422 tau removed [4]: > 90%
decrease in aggregated tau in HEK293 cells expressing hTau-P301L seeded with Tg4510 homogenate pre-incubated with antibody (Cisbio tau aggregation assay) [16]: 40%
reduction of P3 and S1p induced tau seeding in rTg4510 cortical neurons (Cisbio tau aggregation assay) [16]: 23%

Substance: IPN002 (antibody)
TG/wt (ratio of binding to transgenic over wild type mouse brain tau) [2]: 37 fold
